Experiments:
ICAM-1/IgG chimera = ICAM-1/IgG chimera (UniProt P05362); test: adhesion of transfected CHO cells to immobilized chimera, with PMA
[1] = target: LFA-1 (CD11a/CD18) on cells (human) (UniProt P20701); test: neutrophil adhesion to immobilized ICAM-R/Ig, mAb 15 µg/ml
[2] = target: LFA-1 (CD11a/CD18) on cells (human) (UniProt P20701); test: SKW3 cell adhesion to plate-bound shICAM-R, peptide 1-2 mg/ml
[3] = target: LFA-1 (CD11a/CD18) on cells (human) (UniProt P20701); test: JY cell adhesion to shICAM-R, mAb 10 µg/ml

Chain of LFA-1 (CD11a/CD18) on cells (human) (P20701 26-1170, chain 1 of 2): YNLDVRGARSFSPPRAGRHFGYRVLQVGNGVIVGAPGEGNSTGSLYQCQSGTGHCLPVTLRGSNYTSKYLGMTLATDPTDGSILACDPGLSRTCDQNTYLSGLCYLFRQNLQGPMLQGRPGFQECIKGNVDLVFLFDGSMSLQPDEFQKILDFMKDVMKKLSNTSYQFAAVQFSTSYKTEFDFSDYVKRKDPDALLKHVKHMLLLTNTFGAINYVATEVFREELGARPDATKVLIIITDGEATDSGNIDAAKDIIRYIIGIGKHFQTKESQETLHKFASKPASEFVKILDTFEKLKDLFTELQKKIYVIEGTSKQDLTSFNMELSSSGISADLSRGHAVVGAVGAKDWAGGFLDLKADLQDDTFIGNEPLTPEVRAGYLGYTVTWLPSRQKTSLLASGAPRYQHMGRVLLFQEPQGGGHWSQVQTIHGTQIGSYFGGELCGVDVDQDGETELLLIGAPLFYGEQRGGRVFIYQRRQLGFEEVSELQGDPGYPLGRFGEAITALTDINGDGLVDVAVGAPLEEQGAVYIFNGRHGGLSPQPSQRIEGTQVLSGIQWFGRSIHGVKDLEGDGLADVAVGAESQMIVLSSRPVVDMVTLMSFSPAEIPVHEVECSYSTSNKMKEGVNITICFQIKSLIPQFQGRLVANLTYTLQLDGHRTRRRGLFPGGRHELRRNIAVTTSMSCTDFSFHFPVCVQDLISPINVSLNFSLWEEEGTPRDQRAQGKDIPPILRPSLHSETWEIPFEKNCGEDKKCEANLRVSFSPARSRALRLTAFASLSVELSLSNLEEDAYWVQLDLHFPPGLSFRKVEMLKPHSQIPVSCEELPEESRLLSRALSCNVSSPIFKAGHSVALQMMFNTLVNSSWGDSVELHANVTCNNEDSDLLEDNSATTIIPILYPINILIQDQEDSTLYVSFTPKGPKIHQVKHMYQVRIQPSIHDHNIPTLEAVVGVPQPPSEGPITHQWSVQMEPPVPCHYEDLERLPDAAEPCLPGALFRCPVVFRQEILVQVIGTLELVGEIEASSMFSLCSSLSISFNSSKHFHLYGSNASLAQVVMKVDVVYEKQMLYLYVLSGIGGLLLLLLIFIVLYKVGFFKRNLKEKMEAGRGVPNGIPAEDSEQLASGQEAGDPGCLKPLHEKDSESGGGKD
Chain of LFA-1 (CD11a/CD18) on cells (human) (P05107 23-769, chain 2 of 2, further chain): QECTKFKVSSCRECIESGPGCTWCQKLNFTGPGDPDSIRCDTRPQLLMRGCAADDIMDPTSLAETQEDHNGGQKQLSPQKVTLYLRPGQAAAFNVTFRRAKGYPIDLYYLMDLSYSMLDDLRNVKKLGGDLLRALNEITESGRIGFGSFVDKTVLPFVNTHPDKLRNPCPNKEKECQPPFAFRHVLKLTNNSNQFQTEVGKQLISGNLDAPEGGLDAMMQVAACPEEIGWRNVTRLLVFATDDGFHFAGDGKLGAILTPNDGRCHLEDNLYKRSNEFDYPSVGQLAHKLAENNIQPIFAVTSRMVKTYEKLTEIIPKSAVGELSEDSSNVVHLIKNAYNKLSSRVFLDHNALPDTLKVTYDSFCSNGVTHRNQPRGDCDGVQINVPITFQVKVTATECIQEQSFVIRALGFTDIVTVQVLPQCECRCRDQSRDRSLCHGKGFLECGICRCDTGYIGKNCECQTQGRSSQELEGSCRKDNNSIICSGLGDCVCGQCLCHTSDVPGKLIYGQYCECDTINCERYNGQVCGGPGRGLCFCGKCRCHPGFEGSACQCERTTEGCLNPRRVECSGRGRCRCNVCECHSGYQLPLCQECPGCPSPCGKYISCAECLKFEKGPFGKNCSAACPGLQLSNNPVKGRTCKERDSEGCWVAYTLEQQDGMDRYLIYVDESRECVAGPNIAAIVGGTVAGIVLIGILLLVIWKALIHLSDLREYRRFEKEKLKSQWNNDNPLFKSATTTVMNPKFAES
Chain of ICAM-1/IgG chimera (P05362 28-480 limits assumed, change not shown): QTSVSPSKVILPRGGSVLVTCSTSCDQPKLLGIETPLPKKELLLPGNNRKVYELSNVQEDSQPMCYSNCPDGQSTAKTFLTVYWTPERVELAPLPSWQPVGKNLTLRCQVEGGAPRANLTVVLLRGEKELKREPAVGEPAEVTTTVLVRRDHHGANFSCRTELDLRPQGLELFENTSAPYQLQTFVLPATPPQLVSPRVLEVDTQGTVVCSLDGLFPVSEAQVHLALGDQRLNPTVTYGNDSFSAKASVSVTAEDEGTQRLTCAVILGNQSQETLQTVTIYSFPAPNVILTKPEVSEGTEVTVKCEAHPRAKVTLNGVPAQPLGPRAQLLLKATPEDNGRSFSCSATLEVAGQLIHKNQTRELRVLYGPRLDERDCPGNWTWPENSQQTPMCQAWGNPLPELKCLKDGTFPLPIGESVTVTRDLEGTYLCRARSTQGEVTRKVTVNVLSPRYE
Chain of LFA-1 (CD11a/CD18) on cells (P20701 26-1170): as the sequence (P20701 26-1170, chain 1 of 2) above
Chain of LFA-1 (CD11a/CD18) on cells (P05107 23-769): as the sequence (P05107 23-769, chain 2 of 2, further chain) above

LFA-1 (CD11a/CD18) on cells (from UniProt P20701 26-1170; P05107 23-769) (receptor; other documents disagree on this pair)
fold increase in binding (ICAM-1/IgG chimera): 2 to 3 fold

anti-CD11a monoclonal antibody TS1/22
% inhibition of neutrophil binding to ICAM-R [1]: 50%

ICAM-R domain 1 peptide NGSQI, residues 72-76
% Inhibition of cell binding to shICAM-R [2]: 26%

anti-CD18 monoclonal antibody 60.3
Inhibition (%) of CD18-dependent JY cell binding [3]: 100%

Reference: US20040248211A1, “ICAM-related protein” (priority 1992, published 2004)
